# Data: patent US8956838B2, “Carboxyl esterase polypeptides” (B.R.A.I.N., priority 2006, dated 2015)
# B1: EstA3: recombinant enzyme having carboxyl esterase activity, amino acid sequence SEQ ID NO: 2, family VIII of bacterial lipolytic enzymes (protein)
# chain: MSAEELGFLPDRLARISDHIQTNYLDNGKLPFASLLIGRGDDIALQWSSGVADDAIFRIASMTKPVTSVAFMQLVEQGKVALTDPVAKYIPEFAKLGVFVAGGGNIPFVSRPPTMPMRIVDVLRHTTGFTYSFQERSNIDAAYRKTDVESWTRSTSQSFIDTLAEIPLEFDPGTQWNYSVSTDVLGILIERISGQSLPDYFRDHIFAPLGMVDTCFTVPADKAARIPQCFAFDPATKMKLFDEAGASSLWTKGWSFNSGGGGLASSVADYHRFCRMLLNGGALDGIQIISPKTLELMTANHLPGGQDLTQMSKSLFSEAEMAGIGFGLGFATTIDSVATLTPCSTGDFYWGGMYSTAFFVDPVEDIIMIFMTQLMPSSTYPVRREIKTMIYSALAA
# modifications: metagenomic sequence
# How the values were obtained:
# Format in all cases: biochemical
# [1] = Enzyme activity with pNP-acylesters of different chain length; conditions: 4 mM, 45° C., pH 7.2
# Method: Enzyme activity tests were performed by incubating the enzyme with 4 mM substrate at 45° C. in 100 mM Tris-HCl buffer at pH 7.2, unless otherwise indicated. The reaction was measured at 410 nm. One unit is defined as the amount of enzyme catalyzing the appearance of 1 μmol of free p-nitrophenol/min. Enzyme activity against pNP-acylesters (butyrate, valerate, caproate, octanoate, decanoate and palmitate) was tested under the above conditions. […] The enzyme according to SEQ ID NO: 6 converted pNP-caproate with a specific activity of 80.0 U/mg.
# [2] = Titration assay with vinyl acid esters; conditions: 10 mM, 37° C., pH 7.0
# Method: Enzyme activities on the substrates triacetin, tripropionin, tributyrin, tricaprylene, trilaurin and vinyl-substrates (vinyl-acetate, ˜propionate, ˜butyrate, ˜caproate, ˜caprylate and ˜laurate) were determined using a standard titration assay with minor modifications. Tests were performed with a Methrom 718 STAT potentiometric titrator (Herisau, Switzerland) and by using 10 mM NaOH for titration. The substrates at 10 mM concentration were emulsified in 20 ml reaction buffer containing 2 mM Tris/HCl pH 7.0. After addition of 7.5 μg of the purified enzyme the NaOH consumption was recorded at a reaction temperature of 37° C. One unit was defined as the amount of enzyme that released […] of fatty acid per min.
# [3] = Solvent stability, residual activity; conditions: for Residual activity after 1 h incubation in the presence of solvent: 1 h at 30° C., measured at 45° C.; for activity in the presence of solvent, levels up to: both concentrations (15% and 30% v/v)
# Method: The stability of the enzymes was determined in the presence of the following solvents: DMSO, isopropanol, methanol, dimethylformamide, acetone and acetonitrile. The enzymes were incubated for 1 hour at 30° C. in the presence of either 15% (v/v) or 30% (v/v) of the solvents and the residual activity was measured at 45° C. The substrate used was pNP-butyrate.
# [4] = Substrate specificity on pNP-substrates with importance for pharmaceutical products; conditions: 30 minute, 40° C., pH 7.5
# Method: The substrate range of the two enzymes was determined using pNP esters of the following: benzoate, 2-(4-isobutylphenyl)propanoate (Ibuprofen), 2-phenylpropanoate, 3-phenylbutanoate, cyclohexanoate, 2-(3-benzoylphenyl)propanoate, 2-naphthoate, 1-naphthoate, adamantanoate and 2-(6-methoxynaphthalene-2-yl)propanoate (Naproxen). Activity was determined at 410 nm after 30 minute incubation at 40° C. The reaction mixture was 950 μl buffer (100 mM Tris, pH 7.5), 50 μl substrate (5 mg/ml in DMSO) and 1 μg enzyme.
# [5] = Enantioselectivity, GC analysis of hydrolysis of acetic acid esters; conditions: for conversion %: ^2 only complete conversion could be measured
# Method: To assay the activity of the enzymes on a range of acetic acid esters gas chromatography was used. The samples were analyzed for the production of chiral alcohols by the gas chromatograph GC-17A (Shimadzu, Duisburg, Germany) equipped with FID detector and CP-Chirasil-DEX CB (Chrompack (Middelburg, Netherlands), 25 m×0.25 mm ID) at a helium flow of 1.3 ml/min. The temperature programme included: 5 min at 60° C., followed by an increase of 5° C. per min until 190° C. was reached. For the GC analysis, activity-tests were run in 1 M Tris buffered solutions and using 10 mM substrates dissolved in DMSO as 0.1 M stock solutions. 2 μg of the enzyme were added and tests incubated over night before the corresponding alcohols could be extracted by treatment with acetic acid ethyl ester and analyzed by GC.
# [6] = Effect of bivalent cations and EDTA on catalytic activity
# [7] = Determination of pH optimum by titration; conditions: incubation for up to 48 hours, up to pH 12 (data not shown)
# Method: The pH optimum for the enzymes was determined using tributyrin as substrate. The incubation conditions were 20 ml buffer (2.5 mM phosphate buffer [pH 4-7], 2.5 mM Tris/HCl buffer [pH 7-11] or 2.5 mM glycine buffer [pH 9-11], supplemented with 100 mM NaCl) stirred at a constant temperature of 37° C. The esterase substrate tributyrin (final concentration of 2 mM) was added to 5 ml of the corresponding buffer at 37° C., emulsified and added to the whole preparation. This substrate emulsion was held constant at the correct pH automatically by the titrator (718 STAT Titrino; Metrohm, Herisau, Switzerland) for 2 min and this served as the control. […]
# [8] = Determination of thermal stability
# Method: To assay the thermostability of the enzymes they were incubated at different temperatures for one hour and the residual activity assayed at 10 minute intervals. Residual activity was measured using pNP-caproate as substrate as described above.
# [9] = substrate Acetic acid ester of tetrahydronaphthylamin
# [10] = substrate acetic acid ester of (+/−)-1-octin-3-ol, 10 mM, over night
# [11] = substrate acetic acid ester of cis-1,2-cyclohexandiol, values marked ^1: substrate conversion after 12 h
# [12] = substrate acetic acid ester of phenylethylamin
# [13] = substrate cis-3,5-diacetoxy-1-cyclopenten
# [14] = substrate isopropylidenglycerolacetate (rac.), values marked ^1: substrate conversion after 12 h
molecule,measurement,setting,value
B1,specific activity,[1]; substrate pNP-butyrate (C4),513.6 U/mg
same,specific activity,[1]; substrate pNP-caproate (C6),425.7 U/mg
same,specific activity,[1]; substrate pNP-decanoate (C10),0 U/mg
same,specific activity,[1]; substrate pNP-octanoate (C8),3.6 U/mg
same,specific activity,[1]; substrate pNP-palmitate (C16),0 U/mg
same,specific activity,[1]; substrate pNP-valerate (C5),425.7 U/mg
same,specific activity,[2]; substrate vinyl acetate (C2),107.5 U/mg
same,specific activity,[2]; substrate vinyl butyrate (C4),387.5 U/mg
same,specific activity,[2]; substrate vinyl caproate (C6),237.5 U/mg
same,specific activity,[2]; substrate vinyl caprylate (C8),155.0 U/mg
same,specific activity,[2]; substrate vinyl laurinate (C12),7.5 U/mg
same,specific activity,[2]; substrate vinyl propionate (C3),380.0 U/mg
same,Residual activity after 1 h incubation in the presence of solvent,[3]; 15% (v/v) Acetone,152%
same,Residual activity after 1 h incubation in the presence of solvent,[3]; 15% (v/v) Acetonitrile,110%
same,Residual activity after 1 h incubation in the presence of solvent,[3]; 15% (v/v) DMSO,102%
same,Residual activity after 1 h incubation in the presence of solvent,[3]; 15% (v/v) Dimethylformamid,125%
same,Residual activity after 1 h incubation in the presence of solvent,[3]; 15% (v/v) Isopropanol,155%
same,Residual activity after 1 h incubation in the presence of solvent,[3]; 15% (v/v) Methanol,111%
same,Residual activity after 1 h incubation in the presence of solvent,[3]; 30% (v/v) Acetone,155%
same,Residual activity after 1 h incubation in the presence of solvent,[3]; 30% (v/v) Acetonitrile,87%
same,Residual activity after 1 h incubation in the presence of solvent,[3]; 30% (v/v) DMSO,104%
same,Residual activity after 1 h incubation in the presence of solvent,[3]; 30% (v/v) Dimethylformamid,128%
same,Residual activity after 1 h incubation in the presence of solvent,[3]; 30% (v/v) Isopropanol,117%
same,Residual activity after 1 h incubation in the presence of solvent,[3]; 30% (v/v) Methanol,130%
same,"activity in the presence of solvent, levels up to",[3]; acetone,≤ 155%
same,"activity in the presence of solvent, levels up to",[3]; dimethylformamide,up to 128%
same,specific activity,[4]; pNP-ester of 1-naphthoate,0 U/mg
same,specific activity,[4]; pNP-ester of 2-(3-benzoylphenyl) propanoate,26.7 U/mg
same,specific activity,[4]; pNP-ester of 2-(4-isobutylphenyl) propanoate (Ibuprofen),7.2 U/mg
same,specific activity,[4]; pNP-ester of 2-(6-methoxy-naphthalen-2-yl) propanoate (Naproxen),26.7 U/mg
same,specific activity,[4]; pNP-ester of 2-naphthoate,0 U/mg
same,specific activity,[4]; pNP-ester of 2-phenylpropanoate,21.0 U/mg
same,specific activity,[4]; pNP-ester of 3-phenylbutanoate,31.6 U/mg
same,specific activity,[4]; pNP-ester of adamantanoate,0 U/mg
same,specific activity,[4]; pNP-ester of benzoate,9.4 U/mg
same,specific activity,[4]; pNP-ester of cyclohexanoate,50.0 U/mg
same,"hydrolysis, in words",[5]; acetic acid ester of R-(+)-3-chlor-1-phenyl-1-propanol,capable of hydrolyzing
same,"hydrolysis, in words",[5]; acetic acid ester of rac-1-octin-3-ol,capable of hydrolyzing
same,"hydrolysis, in words",[5]; acetic acid ester of trimethylsilylbutinol,capable of hydrolyzing
same,conversion % of 1.e,[5]; [9],0%
same,conversion % of 2.e,[5]; [9],0%
same,ee %,[5]; substrate acetic acid ester of (+/−)-1-octin-3-ol,12%
same,conversion % of 1.e,[5]; [10],24%
same,conversion % of 2.e,[5]; [10],18%
same,conversion %,[5]; substrate acetic acid ester of R-(+)-3-chlor-1-phenyl-1-propanol,6^2%
same,conversion % of 1.e,[5]; [11],0%
same,conversion % of 2.e,[5]; [11],0%
same,conversion % of 1.e,[5]; [12],0%
same,conversion % of 2.e,[5]; [12],0%
same,conversion % of 2.e,"[5]; substrate acetic acid ester of trans-1,2-cyclohexandiol",0%
same,conversion % of 1.e,"[5]; substrate acetic acid ester of trans-1,2-cyclohexandiol, in text: conversion of the preferred enantiomer",0%
same,conversion %,[5]; substrate acetic acid ester of trimethylsilylbutinol,45^2%
same,conversion % of 2.e,[5]; [13],0%
same,ee %,[5]; [13],100%
same,conversion % of 1.e,"[5]; substrate cis-3,5-diacetoxy-1-cyclopenten, conversion for the preferred enantiomer",24%
same,conversion % of 1.e,[5]; [14],0%
same,conversion % of 2.e,[5]; [14],0%
same,conversion % of 1.e,"[5]; substrate menthylacetate, 1. enantiomer (+)",0%
same,conversion % of 2.e,"[5]; substrate menthylacetate, 2.e. (−)",0%
same,"effect on activity, in words","[6]; Ca^2+, Cu2+, Mg^2+, Zn^2+, Rb^2+ and EDTA",inhibitory effect
same,stimulation of catalytic activity,[6]; in the presence of Co^2+,about 130%
same,"stability under alkaline conditions, in words",[7],extremely stable with little loss of activity
same,"thermal stability, in words",[8]; incubated for at least 60 minutes at 40° C.,without a major loss of activity
same,"thermal stability, in words",[8]; incubation at temperatures above 45° C. for more than 60 minutes (data not shown),rapid inactivation
